# According to US6713604 (TEXAS BIOTECHNOLOGY, dated 2004):
# Bridges are numbered along the chain shown (N, C = ends). Where no end group is shown, it is not given here. [ ]: non-standard residue; d: D form.
# B1: SEQ ID NO 31 (peptide)
# peptide: CWLDVC-OH
# modifications: disulfide 1-6; N-terminus assumed
# SMILES: CC(C)C[C@@H]1NC(=O)[C@H](Cc2c[nH]c3ccccc23)NC(=O)[C@@H](N)CSSC[C@@H](C(=O)O)NC(=O)[C@H](C(C)C)NC(=O)[C@H](CC(=O)O)NC1=O
# notes: Disulfide cyclic peptide; also called Cys-Trp-Leu-Asp-Val-Cys-acid
# B2: SEQ ID NO 17 (peptide)
# peptide: C[dW]LDVC-OH
# modifications: disulfide 1-6; N-terminus assumed
# SMILES: CC(C)C[C@@H]1NC(=O)[C@@H](Cc2c[nH]c3ccccc23)NC(=O)[C@@H](N)CSSC[C@@H](C(=O)O)NC(=O)[C@H](C(C)C)NC(=O)[C@H](CC(=O)O)NC1=O
# notes: Disulfide cyclic peptide; also called Cys-dTrp-Leu-Asp-Val-Cys-acid
# B3: SEQ ID NO 18 (peptide)
# peptide: Ac-CWLDVC-OH
# modifications: disulfide 1-6
# SMILES: CC(=O)N[C@H]1CSSC[C@@H](C(=O)O)NC(=O)[C@H](C(C)C)NC(=O)[C@H](CC(=O)O)NC(=O)[C@H](CC(C)C)NC(=O)[C@H](Cc2c[nH]c3ccccc23)NC1=O
# notes: Disulfide cyclic peptide; also called Ac-Cys-Trp-Leu-Asp-Val-Cys-acid
# B4: SEQ ID NO 19 (peptide)
# peptide: CYLDVC-OH
# modifications: disulfide 1-6; N-terminus assumed
# SMILES: CC(C)C[C@@H]1NC(=O)[C@H](Cc2ccc(O)cc2)NC(=O)[C@@H](N)CSSC[C@@H](C(=O)O)NC(=O)[C@H](C(C)C)NC(=O)[C@H](CC(=O)O)NC1=O
# notes: Disulfide cyclic peptide; also called Cys-Tyr-Leu-Asp-Val-Cys-acid
# B5: SEQ ID NO 29 (peptide)
# peptide: CWLDYC-OH
# modifications: disulfide 1-6; N-terminus assumed
# SMILES: CC(C)C[C@@H]1NC(=O)[C@H](Cc2c[nH]c3ccccc23)NC(=O)[C@@H](N)CSSC[C@@H](C(=O)O)NC(=O)[C@H](Cc2ccc(O)cc2)NC(=O)[C@H](CC(=O)O)NC1=O
# notes: Disulfide cyclic peptide; also called Cys-Trp-Leu-Asp-Tyr-Cys-acid
# B6: SEQ ID NO 26 (peptide)
# peptide: CWKDVC-OH
# modifications: disulfide 1-6; N-terminus assumed
# SMILES: CC(C)[C@@H]1NC(=O)[C@H](CC(=O)O)NC(=O)[C@H](CCCCN)NC(=O)[C@H](Cc2c[nH]c3ccccc23)NC(=O)[C@@H](N)CSSC[C@@H](C(=O)O)NC1=O
# notes: Disulfide cyclic peptide; also called Cys-Trp-Lys-Asp-Val-Cys-acid
# B7: SEQ ID NO 25 (peptide)
# peptide: CWVDVC-OH
# modifications: disulfide 1-6; N-terminus assumed
# SMILES: CC(C)[C@@H]1NC(=O)[C@H](CC(=O)O)NC(=O)[C@H](C(C)C)NC(=O)[C@H](Cc2c[nH]c3ccccc23)NC(=O)[C@@H](N)CSSC[C@@H](C(=O)O)NC1=O
# notes: Disulfide cyclic peptide; also called Cys-Trp-Val-Asp-Val-Cys-acid
# B8: SEQ ID NO 20 (peptide)
# peptide: CWLDFC-OH
# modifications: disulfide 1-6; N-terminus assumed
# SMILES: CC(C)C[C@@H]1NC(=O)[C@H](Cc2c[nH]c3ccccc23)NC(=O)[C@@H](N)CSSC[C@@H](C(=O)O)NC(=O)[C@H](Cc2ccccc2)NC(=O)[C@H](CC(=O)O)NC1=O
# notes: Disulfide cyclic peptide; also called Cys-Trp-Leu-Asp-Phe-Cys-acid
# B9: SEQ ID NO 21 (peptide)
# peptide: CFLDVC-OH
# modifications: disulfide 1-6; N-terminus assumed
# SMILES: CC(C)C[C@@H]1NC(=O)[C@H](Cc2ccccc2)NC(=O)[C@@H](N)CSSC[C@@H](C(=O)O)NC(=O)[C@H](C(C)C)NC(=O)[C@H](CC(=O)O)NC1=O
# notes: Disulfide cyclic peptide; also called Cys-Phe-Leu-Asp-Val-Cys-acid
# B10: SEQ ID NO 22 (peptide)
# peptide: CWLDWC-OH
# modifications: disulfide 1-6; N-terminus assumed
# SMILES: CC(C)C[C@@H]1NC(=O)[C@H](Cc2c[nH]c3ccccc23)NC(=O)[C@@H](N)CSSC[C@@H](C(=O)O)NC(=O)[C@H](Cc2c[nH]c3ccccc23)NC(=O)[C@H](CC(=O)O)NC1=O
# notes: Disulfide cyclic peptide; also called Cys-Trp-Leu-Asp-Trp-Cys-acid
# B11: SEQ ID NO 28 (peptide)
# peptide: CWLDLC-OH
# modifications: disulfide 1-6; N-terminus assumed
# SMILES: CC(C)C[C@@H]1NC(=O)[C@H](CC(=O)O)NC(=O)[C@H](CC(C)C)NC(=O)[C@H](Cc2c[nH]c3ccccc23)NC(=O)[C@@H](N)CSSC[C@@H](C(=O)O)NC1=O
# notes: Disulfide cyclic peptide; also called Cys-Trp-Leu-Asp-Leu-Cys-acid
# B12: SEQ ID NO 23 (peptide)
# peptide: CWIDVC-OH
# modifications: disulfide 1-6; N-terminus assumed
# SMILES: CC[C@H](C)[C@@H]1NC(=O)[C@H](Cc2c[nH]c3ccccc23)NC(=O)[C@@H](N)CSSC[C@@H](C(=O)O)NC(=O)[C@H](C(C)C)NC(=O)[C@H](CC(=O)O)NC1=O
# notes: Disulfide cyclic peptide; also called Cys-Trp-Ile-Asp-Val-Cys-acid
# B13: SEQ ID NO 24 (peptide)
# peptide: CWMDVC-OH
# modifications: disulfide 1-6; N-terminus assumed
# SMILES: CSCC[C@@H]1NC(=O)[C@H](Cc2c[nH]c3ccccc23)NC(=O)[C@@H](N)CSSC[C@@H](C(=O)O)NC(=O)[C@H](C(C)C)NC(=O)[C@H](CC(=O)O)NC1=O
# notes: Disulfide cyclic peptide; also called Cys-Trp-Met-Asp-Val-Cys-acid
# B14: SEQ ID NO 16 (peptide)
# peptide: CSWLDVC
# modifications: disulfide 1-7
# notes: Disulfide cyclic peptide; also called Cys-Ser-Trp-Leu-Asp-Val-Cys
# B15: SEQ ID NO 36 (peptide)
# peptide: CEWLDYC-OH
# modifications: disulfide 1-7; N-terminus assumed
# SMILES: CC(C)C[C@@H]1NC(=O)[C@H](Cc2c[nH]c3ccccc23)NC(=O)[C@H](CCC(=O)O)NC(=O)[C@@H](N)CSSC[C@@H](C(=O)O)NC(=O)[C@H](Cc2ccc(O)cc2)NC(=O)[C@H](CC(=O)O)NC1=O
# notes: Disulfide cyclic peptide; also called Cys-Glu-Trp-Leu-Asp-Tyr-Cys-acid
# B16: SEQ ID NO 34 (peptide)
# peptide: CEWLDVC-OH
# modifications: disulfide 1-7; N-terminus assumed
# SMILES: CC(C)C[C@@H]1NC(=O)[C@H](Cc2c[nH]c3ccccc23)NC(=O)[C@H](CCC(=O)O)NC(=O)[C@@H](N)CSSC[C@@H](C(=O)O)NC(=O)[C@H](C(C)C)NC(=O)[C@H](CC(=O)O)NC1=O
# notes: Disulfide cyclic peptide; also called Cys-Glu-Trp-Leu-Asp-Val-Cys-acid
# B17: SEQ ID NO 37 (peptide)
# peptide: CSFLDYC-OH
# modifications: disulfide 1-7; N-terminus assumed
# SMILES: CC(C)C[C@@H]1NC(=O)[C@H](Cc2ccccc2)NC(=O)[C@H](CO)NC(=O)[C@@H](N)CSSC[C@@H](C(=O)O)NC(=O)[C@H](Cc2ccc(O)cc2)NC(=O)[C@H](CC(=O)O)NC1=O
# notes: Disulfide cyclic peptide; also called Cys-Ser-Phe-Leu-Asp-Tyr-Cys-acid
# B18: SEQ ID NO 33 (peptide)
# peptide: CEWLDVC-NH2
# modifications: disulfide 1-7; N-terminus assumed
# SMILES: CC(C)C[C@@H]1NC(=O)[C@H](Cc2c[nH]c3ccccc23)NC(=O)[C@H](CCC(=O)O)NC(=O)[C@@H](N)CSSC[C@@H](C(N)=O)NC(=O)[C@H](C(C)C)NC(=O)[C@H](CC(=O)O)NC1=O
# notes: Disulfide cyclic peptide; also called Cys-Glu-Trp-Leu-Asp-Val-Cys-amide
# B19: SEQ ID NO 32 (peptide)
# peptide: [dC]WLDVC-OH
# modifications: disulfide 1-6; N-terminus assumed
# SMILES: CC(C)C[C@@H]1NC(=O)[C@H](Cc2c[nH]c3ccccc23)NC(=O)[C@H](N)CSSC[C@@H](C(=O)O)NC(=O)[C@H](C(C)C)NC(=O)[C@H](CC(=O)O)NC1=O
# notes: Disulfide cyclic peptide; also called dCys-Trp-Leu-Asp-Val-Cys-acid
# Biological target: T1, integrin α4β1 (human, UniProt P13612 34-1032; P05556 21-798)
# T1 construct: whole, on cells; also called VLA-4; very late antigen-4
# Assay: inhibition of HL-60 cell (α4β1) binding to VCAM-IgG coated beads, fluorimetry
# Description: The media was collected and active protein was purified by immunoprecipitation using Dynal magnetic polystyrene beads coated with goat anti-mouse IgG. Following immunoprecipitation, the beads bound cells that expressed the integrin α_4β_1 such as Ramos and HL-60.
# HL-60 cells were fluorescently labeled with Calcein AM C-3099 (Molecular Probes) and resuspended in 1 ml of binding buffer (Hank's balanced salt solution, pH 7.4, 1.0 mM CaCl_2, 1.0 mM MgCl_2). The beads (10 µl, 4×10^6 beads/ml) were placed in wells of a 96-well microtiter dish with 10 µl of peptide at various concentrations. The beads were incubated with 10 µl of labeled cells (10^7 cells/ml) for 10 min at room temperature. Following immobilization of the beads onto the plastic with a magnet, unbound cells were removed by washing three times with binding buffer. The remaining bound cells were lysed in 50 mM Tris, pH 7.4, 5.0 mM EDTA, 1.0% NP-40 and quantitated by fluorimetry using a Millipore Cytofluor 2350 fluorimeter. Dose response curves were calculated and IC$50$ values determined. Alternatively, the percent adhesion was determined at a single peptide concentration for comparison among peptides.
# T1 sequence (P13612 34-1032, chain 1 of 2): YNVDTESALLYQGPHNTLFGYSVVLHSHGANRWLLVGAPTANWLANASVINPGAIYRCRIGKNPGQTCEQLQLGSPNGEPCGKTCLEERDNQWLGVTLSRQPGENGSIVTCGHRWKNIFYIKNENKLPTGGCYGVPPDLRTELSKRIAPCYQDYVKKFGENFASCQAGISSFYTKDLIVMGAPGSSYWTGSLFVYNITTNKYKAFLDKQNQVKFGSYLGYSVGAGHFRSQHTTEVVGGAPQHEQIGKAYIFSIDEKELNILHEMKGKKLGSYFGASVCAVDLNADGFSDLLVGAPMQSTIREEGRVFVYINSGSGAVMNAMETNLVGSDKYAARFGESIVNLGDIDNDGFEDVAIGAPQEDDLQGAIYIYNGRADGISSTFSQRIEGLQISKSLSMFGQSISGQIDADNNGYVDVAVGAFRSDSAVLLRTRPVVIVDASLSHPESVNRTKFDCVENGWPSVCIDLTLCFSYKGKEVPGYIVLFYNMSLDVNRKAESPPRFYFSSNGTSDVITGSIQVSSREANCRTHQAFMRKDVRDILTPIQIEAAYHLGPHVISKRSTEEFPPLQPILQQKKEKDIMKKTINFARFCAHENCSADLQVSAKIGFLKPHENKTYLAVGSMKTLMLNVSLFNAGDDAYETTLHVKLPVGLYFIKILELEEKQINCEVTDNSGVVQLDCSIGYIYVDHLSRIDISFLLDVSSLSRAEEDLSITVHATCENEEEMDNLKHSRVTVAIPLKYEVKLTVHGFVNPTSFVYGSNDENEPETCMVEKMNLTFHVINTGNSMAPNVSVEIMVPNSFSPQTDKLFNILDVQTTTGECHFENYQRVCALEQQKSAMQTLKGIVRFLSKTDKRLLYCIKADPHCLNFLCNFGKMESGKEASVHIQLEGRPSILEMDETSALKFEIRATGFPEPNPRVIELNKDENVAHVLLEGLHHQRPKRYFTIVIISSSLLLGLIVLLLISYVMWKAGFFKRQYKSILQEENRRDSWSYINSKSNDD
# T1 sequence (P05556 21-798, chain 2 of 2): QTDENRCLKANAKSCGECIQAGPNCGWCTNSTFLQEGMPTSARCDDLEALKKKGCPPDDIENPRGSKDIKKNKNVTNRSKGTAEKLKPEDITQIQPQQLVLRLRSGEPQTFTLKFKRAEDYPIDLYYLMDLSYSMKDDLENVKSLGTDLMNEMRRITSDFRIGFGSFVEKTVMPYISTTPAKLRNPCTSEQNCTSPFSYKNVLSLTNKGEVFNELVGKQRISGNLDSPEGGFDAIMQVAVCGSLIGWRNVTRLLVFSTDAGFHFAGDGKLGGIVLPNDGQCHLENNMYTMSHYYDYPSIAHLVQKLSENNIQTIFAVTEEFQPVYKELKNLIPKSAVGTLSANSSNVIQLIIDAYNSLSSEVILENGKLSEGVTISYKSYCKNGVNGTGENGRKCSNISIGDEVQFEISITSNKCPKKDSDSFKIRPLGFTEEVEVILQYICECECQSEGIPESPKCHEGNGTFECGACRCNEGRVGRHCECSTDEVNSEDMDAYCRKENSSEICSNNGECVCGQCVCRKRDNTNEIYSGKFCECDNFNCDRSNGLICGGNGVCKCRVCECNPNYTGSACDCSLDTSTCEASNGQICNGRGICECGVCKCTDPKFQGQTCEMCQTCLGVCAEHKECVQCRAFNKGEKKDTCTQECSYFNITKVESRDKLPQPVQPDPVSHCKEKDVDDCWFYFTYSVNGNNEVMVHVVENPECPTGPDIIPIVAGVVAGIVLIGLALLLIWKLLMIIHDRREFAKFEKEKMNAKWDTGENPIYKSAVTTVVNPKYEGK
row,peptide concentration that significantly inhibits binding [µM],Binder
1,< 10,B1
2,< 10,B2
3,< 10,B3
4,< 10,B4
5,< 10,B5
6,< 10,B6
7,< 10,B7
8,< 10,B8
9,< 10,B9
10,< 10,B10
11,< 10,B11
12,< 10,B12
13,< 10,B13
14,< 10,B14
15,< 10,B15
16,< 10,B16
17,< 10,B17
18,< 10,B18
19,< 10,B19
